This passage reports Kd and reduction of transmigration of neutrophils (IL-8 mediated neutrophil chemotaxis, transwell, 1 nM IL-8, 1.5 and 3 hours) results from patent publication US20200377587A1.

Numbering of substitutions follows the chain as printed.

In one test the target is IL-8 (72-mer) (UniProt P10145). Nature of the test: binding kinetics, FIG. 1B.
Another test addresses IL-8 (77-mer) (UniProt P10145). The test can be described thus: binding kinetics, FIG. 1B.
The target of test [1] is IL-8 (UniProt P10145). Nature of the test: SPR, scFv, preliminary KD, lowest and highest value.
IL-8, sequence (P10145 28-99 limits assumed): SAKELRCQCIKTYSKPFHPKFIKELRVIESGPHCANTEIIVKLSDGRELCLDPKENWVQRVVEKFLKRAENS
Test [2] has as its target IL-8 (UniProt P10145). Nature of the test: cell-based or functional assay.
Test [3] addresses IL-8 (UniProt P10145). The test can be described thus: SPR, immobilized IL-8, scFv, 25 C. (In general: Surface plasmon resonance follows binding to a sensor surface in real time, without labels.)

IL-8 (72-mer), sequence (P10145 28-99 limits assumed): as above
IL-8 (77-mer), sequence (P10145 23-99 limits assumed): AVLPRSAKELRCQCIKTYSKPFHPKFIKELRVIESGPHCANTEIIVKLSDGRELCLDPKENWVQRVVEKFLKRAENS

B1: scFv 49-31 (scFv, part only; not given: linker and domain order, V domains shown, not shown: another chain or arm of the molecule; small tags and cut ends)
VH: EVQLVESGGGLVQPGGSLRLSCAASGFTFSSYYMHWVRQAPGKGLEWVSAISGGGSSTYYADSVKGRFTISRDNSKNTLYLQMNSLRAEDTAVYYCARDLRIFEGRDAGFDVWGQGTLVTVS
VL: DIQMTQSPSSLSASVGDRVTITCQASQDISNYLNWYQQKPGKAPKLLIYDASNLETGVPSRFSGSGSGTDFTFTISSLQPEDIATYYCQQDDDVPWTFGQGTKVEIK
As usually defined, the Kd is a measure of binding affinity in units of concentration. Lower therefore signals a tighter complex. Regarding B1, the dissociation constant (Kd) with IL-8 (72-mer) was 0.147 nM; with IL-8 (77-mer), 0.12 nM; in the test with IL-8 [1], 0.009 to 0.048 nM; in the test with IL-8 [3], 0.009 to 0.048 nM. The molecule also displayed a reduction of transmigration of neutrophils (IL-8 mediated neutrophil chemotaxis, transwell, 1 nM IL-8, 1.5 and 3 hours) with IL-8 [2] of 30 to 70%.

B2: scFv 49-1 (scFv, part only; not given: linker and domain order, V domains shown, not shown: another chain or arm of the molecule; small tags and cut ends)
VH: EVQLVESGGGLVQPGGSLRLSCAASGFTFSSYWMHWVRQAPGKGLEWVSAISWSGGSTSYADSVKGRFTISRDNSKNTLYLQMNSLRAEDTAVYYCARDLTWWVQAFDVWGQGTLVTVSS
VL: B1 VL with D91V, V94S, W96L
As to B2, the Kd with IL-8 [3] came to 2.66 nM.
